In the supplement of paper PMC9876800:

System: peptide library, one residue held at a place counted from the S/T acceptor
Test: relative phosphorylation of the sub-library (ratio to the mean residue at this position); higher = residue favoured
Summary of the method: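 In 384-well plates, purified recombinant kinases (human or orthologue constructs) were incubated for 90 min under kinase-specific conditions with 50 μM biotinylated degenerate peptide sub-libraries and 50 μM ATP spiked with γ-32P-ATP. Each sub-library fixed a single residue at one position around a central Ser/Thr. Relative sub-library phosphorylation, measured by phosphorimaging and densitometry of streptavidin membrane spots, is given as a ratio to the mean residue at that position.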

Sequence of EIF2AK3, construct: aa536-1116, human (Q9NZJ5 536-1116, looked up): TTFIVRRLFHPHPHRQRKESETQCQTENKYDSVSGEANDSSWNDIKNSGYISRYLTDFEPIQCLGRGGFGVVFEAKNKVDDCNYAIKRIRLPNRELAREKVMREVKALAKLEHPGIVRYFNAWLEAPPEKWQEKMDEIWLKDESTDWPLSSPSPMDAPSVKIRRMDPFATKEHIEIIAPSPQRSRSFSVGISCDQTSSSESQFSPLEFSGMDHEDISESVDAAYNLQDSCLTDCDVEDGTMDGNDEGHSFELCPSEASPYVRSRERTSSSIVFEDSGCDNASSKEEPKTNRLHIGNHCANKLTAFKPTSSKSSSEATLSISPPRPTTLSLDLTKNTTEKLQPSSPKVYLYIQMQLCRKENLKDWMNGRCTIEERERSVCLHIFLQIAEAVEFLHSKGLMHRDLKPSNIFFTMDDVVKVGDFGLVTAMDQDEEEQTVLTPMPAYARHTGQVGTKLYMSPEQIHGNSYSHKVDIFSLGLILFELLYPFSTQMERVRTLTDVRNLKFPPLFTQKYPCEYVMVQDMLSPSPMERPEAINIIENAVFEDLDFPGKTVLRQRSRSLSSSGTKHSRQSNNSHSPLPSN
Sequence of DMPK, construct: aa24-433, human (Q09013 24-433, looked up): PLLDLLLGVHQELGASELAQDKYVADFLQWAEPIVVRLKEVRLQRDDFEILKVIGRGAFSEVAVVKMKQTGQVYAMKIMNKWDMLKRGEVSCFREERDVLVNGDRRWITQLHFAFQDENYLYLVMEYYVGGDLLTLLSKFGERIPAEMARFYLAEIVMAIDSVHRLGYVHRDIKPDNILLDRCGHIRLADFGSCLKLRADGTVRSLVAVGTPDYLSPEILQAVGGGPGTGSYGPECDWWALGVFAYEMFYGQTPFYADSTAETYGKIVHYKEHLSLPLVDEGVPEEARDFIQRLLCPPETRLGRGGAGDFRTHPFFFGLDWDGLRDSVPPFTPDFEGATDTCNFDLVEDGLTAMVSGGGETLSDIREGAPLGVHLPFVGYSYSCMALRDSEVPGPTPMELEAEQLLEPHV
Sequence of ATR, construct: Full length, human (Q13535 whole entry, looked up): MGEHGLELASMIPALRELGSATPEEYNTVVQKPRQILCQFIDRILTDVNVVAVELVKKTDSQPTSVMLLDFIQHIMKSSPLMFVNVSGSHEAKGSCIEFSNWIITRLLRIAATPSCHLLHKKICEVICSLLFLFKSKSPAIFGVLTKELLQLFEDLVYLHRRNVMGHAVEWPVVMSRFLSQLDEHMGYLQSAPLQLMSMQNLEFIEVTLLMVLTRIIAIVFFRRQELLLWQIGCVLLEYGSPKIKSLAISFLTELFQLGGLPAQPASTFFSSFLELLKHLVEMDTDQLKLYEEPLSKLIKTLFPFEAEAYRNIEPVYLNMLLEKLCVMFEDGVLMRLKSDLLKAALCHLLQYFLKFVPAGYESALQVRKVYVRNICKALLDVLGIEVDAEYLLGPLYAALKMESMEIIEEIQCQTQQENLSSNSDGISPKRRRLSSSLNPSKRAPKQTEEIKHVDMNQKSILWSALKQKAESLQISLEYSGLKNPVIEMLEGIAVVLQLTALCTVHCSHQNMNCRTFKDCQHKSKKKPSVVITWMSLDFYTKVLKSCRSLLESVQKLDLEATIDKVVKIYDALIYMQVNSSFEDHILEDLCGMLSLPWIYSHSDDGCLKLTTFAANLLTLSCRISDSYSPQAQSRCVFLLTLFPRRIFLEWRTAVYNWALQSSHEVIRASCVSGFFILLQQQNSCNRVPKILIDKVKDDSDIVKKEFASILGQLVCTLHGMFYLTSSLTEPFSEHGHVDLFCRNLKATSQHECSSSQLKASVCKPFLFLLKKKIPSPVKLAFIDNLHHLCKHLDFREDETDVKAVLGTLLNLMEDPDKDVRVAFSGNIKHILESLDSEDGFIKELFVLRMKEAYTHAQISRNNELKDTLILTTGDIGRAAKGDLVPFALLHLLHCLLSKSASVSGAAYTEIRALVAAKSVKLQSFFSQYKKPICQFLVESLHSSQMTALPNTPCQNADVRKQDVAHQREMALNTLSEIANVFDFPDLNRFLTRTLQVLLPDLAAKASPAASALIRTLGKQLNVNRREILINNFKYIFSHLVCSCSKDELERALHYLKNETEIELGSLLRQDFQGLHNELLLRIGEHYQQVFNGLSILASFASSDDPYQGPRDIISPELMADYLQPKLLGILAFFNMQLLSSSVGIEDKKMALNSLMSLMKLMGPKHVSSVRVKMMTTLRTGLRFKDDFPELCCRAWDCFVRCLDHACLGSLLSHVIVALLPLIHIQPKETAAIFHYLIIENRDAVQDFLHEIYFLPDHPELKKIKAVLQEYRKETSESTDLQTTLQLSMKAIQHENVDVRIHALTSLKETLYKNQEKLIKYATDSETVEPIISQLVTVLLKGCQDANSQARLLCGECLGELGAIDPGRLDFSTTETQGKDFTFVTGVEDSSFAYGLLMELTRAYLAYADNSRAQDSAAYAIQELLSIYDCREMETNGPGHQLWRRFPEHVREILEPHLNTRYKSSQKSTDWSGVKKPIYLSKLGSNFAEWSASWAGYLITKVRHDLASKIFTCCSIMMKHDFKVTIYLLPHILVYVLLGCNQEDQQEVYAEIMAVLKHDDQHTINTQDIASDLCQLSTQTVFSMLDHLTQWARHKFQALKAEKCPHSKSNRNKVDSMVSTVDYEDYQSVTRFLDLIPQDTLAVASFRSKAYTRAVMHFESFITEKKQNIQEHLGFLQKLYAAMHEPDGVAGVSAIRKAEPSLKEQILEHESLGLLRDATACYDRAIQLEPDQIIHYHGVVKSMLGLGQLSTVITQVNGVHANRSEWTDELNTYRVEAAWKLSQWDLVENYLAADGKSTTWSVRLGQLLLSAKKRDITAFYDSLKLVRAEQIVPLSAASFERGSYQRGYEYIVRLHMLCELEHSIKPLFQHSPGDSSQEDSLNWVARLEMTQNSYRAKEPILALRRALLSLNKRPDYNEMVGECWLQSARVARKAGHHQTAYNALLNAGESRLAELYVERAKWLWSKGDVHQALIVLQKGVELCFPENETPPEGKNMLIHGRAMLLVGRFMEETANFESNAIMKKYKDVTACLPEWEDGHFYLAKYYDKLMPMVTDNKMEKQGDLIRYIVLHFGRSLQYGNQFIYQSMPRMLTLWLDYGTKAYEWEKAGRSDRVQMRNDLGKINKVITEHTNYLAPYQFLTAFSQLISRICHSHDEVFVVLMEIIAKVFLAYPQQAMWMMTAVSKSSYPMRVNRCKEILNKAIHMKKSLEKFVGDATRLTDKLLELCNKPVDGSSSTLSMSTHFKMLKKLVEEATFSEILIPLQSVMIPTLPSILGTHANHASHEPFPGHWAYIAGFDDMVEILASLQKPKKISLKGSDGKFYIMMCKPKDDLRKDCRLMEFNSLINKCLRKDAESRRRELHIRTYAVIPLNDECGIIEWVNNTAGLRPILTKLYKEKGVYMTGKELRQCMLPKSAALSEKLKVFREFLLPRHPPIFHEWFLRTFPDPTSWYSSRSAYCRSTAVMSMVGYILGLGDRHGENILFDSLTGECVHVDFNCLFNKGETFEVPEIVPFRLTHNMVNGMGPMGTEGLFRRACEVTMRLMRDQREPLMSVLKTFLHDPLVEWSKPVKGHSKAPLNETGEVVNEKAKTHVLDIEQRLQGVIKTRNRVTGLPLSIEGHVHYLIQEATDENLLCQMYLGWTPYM

EIF2AK3, construct: aa536-1116, human (from UniProt Q9NZJ5)
relative phosphorylation
Settings	at +1	at +2	at +3	at +4	at -1	at -2	at -3	at -4	at -5
A fixed	0.888	1.08	0.836	0.863	0.745	0.615	1.02	1.02	1.07
D fixed	0.348	0.419	0.491	0.684	0.71	3.5	1.61	1.18	1
E fixed	0.676	0.277	0.555	0.678	0.62	3	1.23	0.94	0.712
F fixed	1.08	0.921	1.09	0.92	1.21	1.22	1.04	1.05	1.32
G fixed	1.02	1.14	1.89	1.14	0.458	0.748	0.825	1.05	0.984
H fixed	0.898	1.28	1.31	1.12	1.21	0.712	0.911	1.08	1.17
I fixed	1.05	0.748	0.703	0.838	1.2	0.527	0.819	0.774	0.837
K fixed	1.12	1.06	1.09	1.28	1.19	0.472	0.798	0.942	0.996
L fixed	0.907	0.609	0.8	0.822	1.11	0.877	1.06	0.79	1.01
M fixed	1.6	0.823	0.814	0.871	1.22	0.942	1.06	0.956	0.9
N fixed	0.86	1.12	0.821	0.95	0.879	0.698	0.856	0.788	0.788
P fixed	0.245	0.662	1.48	1.24	0.582	0.429	0.749	0.871	0.837
Q fixed	1.43	0.719	0.778	0.865	0.837	0.615	0.767	0.751	0.713
R fixed	2.11	2.2	1.43	1.53	1.34	0.576	0.934	1.1	1.06
V fixed	0.92	0.709	0.664	0.78	1.25	0.544	0.839	0.825	0.769
W fixed	0.809	1.44	1.25	1.3	1.07	0.892	1.42	1.66	1.49
Y fixed	1.04	1.79	0.999	1.12	1.36	0.629	1.06	1.22	1.34
pThr fixed	0.47	0.307	0.402	0.715	0.478	1.31	1.05	0.722	0.848
pTyr fixed	0.828	0.387	0.715	0.796	0.726	0.527	1.05	0.682	0.847

ATR, construct: Full length, human (from UniProt Q13535)
relative phosphorylation
Settings	at +1	at +2	at +3	at +4	at -1	at -2	at -3	at -4	at -5
A fixed	0.714	1.01	1.05	1.05	1.46	1.01	1.01	0.94	0.971
D fixed	0.582	1.07	1.13	0.968	0.86	0.785	0.814	0.984	1.17
E fixed	0.586	1.07	1.21	0.929	0.742	0.871	0.88	1.18	1.07
F fixed	0.709	0.913	0.944	0.988	0.872	0.957	1.08	1.18	1.3
G fixed	0.651	0.921	0.965	1.13	1.26	0.839	0.875	1.05	1.01
H fixed	0.624	1.06	0.991	1.02	0.845	0.973	0.889	0.982	1.01
I fixed	0.747	0.898	0.866	0.875	0.687	0.793	1.1	0.912	0.818
K fixed	0.649	0.923	0.877	0.928	0.806	1.09	0.911	0.919	0.884
L fixed	0.73	0.871	0.887	0.993	1.26	0.84	1.18	0.901	0.901
M fixed	0.685	0.908	0.92	0.995	0.978	0.94	1.12	0.96	0.931
N fixed	0.933	1.05	1	1.02	1.17	0.945	0.816	0.892	0.877
P fixed	0.689	1.14	1.18	1.19	1.45	1.59	0.972	0.956	0.909
Q fixed	5.91	1.23	1.09	0.994	1.2	1.03	0.859	0.926	0.871
R fixed	0.83	1.09	0.972	0.97	0.855	1.67	1.62	0.982	1
V fixed	0.665	0.967	0.988	0.849	0.725	0.768	0.884	0.867	0.802
W fixed	0.618	0.926	0.934	1.11	0.842	0.916	1.08	1.26	1.23
Y fixed	0.671	0.971	1	0.984	0.987	0.99	0.911	1.11	1.23
pThr fixed	0.679	0.968	1.36	1.1	0.799	0.849	0.99	1.38	1.3
pTyr fixed	0.62	1.01	1.03	1.44	0.904	1.14	1.83	2.14	1.62

MAP2K1, construct: Full length, human (from UniProt Q02750)
relative phosphorylation
Settings	at +1	at +2	at +3	at +4	at -1	at -2	at -3	at -4	at -5
A fixed	0.7	0.969	0.94	0.939	1.03	0.942	1.02	0.999	1.03
D fixed	1.55	0.835	1.02	1	0.876	0.955	1.02	1.13	1.08
E fixed	0.866	0.696	0.898	0.911	0.722	0.931	1	1.2	0.95
F fixed	1.18	0.746	0.992	0.92	0.933	1.72	1.04	1.04	1.81
G fixed	0.753	0.712	1.11	1.07	1.35	0.808	0.725	0.902	0.816
H fixed	0.877	3.48	1.29	0.998	1.02	2.03	1.07	1.11	0.992
I fixed	1.56	0.839	0.852	0.976	0.77	0.695	0.998	0.961	0.94
K fixed	0.629	0.84	0.923	0.885	1.07	0.768	1.09	0.861	0.925
L fixed	1.18	0.718	0.947	1.05	1.32	0.787	1.02	0.891	0.943
M fixed	1.42	0.924	0.909	0.949	1.14	1.02	1.02	1.06	0.909
N fixed	0.738	0.738	0.854	0.83	0.959	0.994	0.781	0.974	0.882
P fixed	0.71	0.775	0.969	1.04	0.768	0.615	0.707	0.806	0.935
Q fixed	0.743	0.79	0.854	0.916	0.967	0.834	0.92	0.896	0.886
R fixed	0.616	0.85	0.916	0.875	1.05	0.955	1.36	0.922	0.907
V fixed	1.21	0.913	0.861	0.895	0.848	0.67	0.94	1.06	0.978
W fixed	1.13	0.87	1.37	1.5	1.02	1.13	1.22	1.11	1.01
Y fixed	1.13	1.31	1.29	1.25	1.17	1.14	1.06	1.09	1.01
pThr fixed	1.45	1.08	0.988	1.02	0.87	0.824	1.7	1.14	0.922
pTyr fixed	1.11	0.882	1.11	0.958	0.875	0.763	0.869	1.04	0.873

DMPK, construct: aa24-433, human (from UniProt Q09013)
relative phosphorylation
Settings	at +1	at +2	at +3	at +4	at -1	at -2	at -3	at -4	at -5
A fixed	0.884	1.09	0.772	0.749	0.934	0.551	0.572	0.816	0.664
D fixed	0.54	1.27	0.59	0.767	0.487	0.294	0.309	0.393	0.359
E fixed	0.471	0.67	0.579	0.643	0.362	0.268	0.284	0.456	0.379
F fixed	0.68	0.838	0.963	0.954	0.739	0.349	0.269	0.657	0.8
G fixed	1.68	0.858	1.04	0.945	1.08	0.537	0.448	0.959	0.915
H fixed	1.2	1.38	1.14	1.05	1.01	0.716	0.776	0.898	1.07
I fixed	1.2	1.12	1.64	0.829	0.585	0.43	0.343	0.946	1.11
K fixed	1.05	1.23	1.03	1.47	2.01	2.67	3.21	2.42	2.72
L fixed	0.967	0.883	1.04	1.09	0.674	0.418	0.343	0.749	0.847
M fixed	0.961	0.75	0.779	0.916	0.755	0.485	0.297	0.749	0.756
N fixed	1.29	0.779	0.83	1.01	1.2	0.747	0.43	0.864	0.675
P fixed	0.622	0.808	0.79	1.18	1.74	0.474	0.461	0.796	0.872
Q fixed	1.25	1.06	0.882	1.07	1.22	0.933	0.877	0.922	0.882
R fixed	1.87	1.28	1.54	1.47	2.18	6.76	7.34	3.06	2.66
V fixed	0.943	1.28	1.5	0.825	0.605	0.507	0.369	0.95	0.803
W fixed	0.641	0.925	0.926	1.21	0.644	0.431	0.304	0.647	0.657
Y fixed	0.742	0.796	0.971	0.832	0.78	0.428	0.371	0.719	0.839
pThr fixed	0.678	1.19	0.865	0.862	0.521	0.441	0.48	0.575	0.561
pTyr fixed	0.522	0.996	0.772	0.617	0.52	0.387	0.493	0.548	0.689
